Data as given in the supplement of paper PMC9732359.
± gives the uncertainty stated by the source.

Experiment: protein stability index of a GFP-peptide fusion (yeast GPS) (PSI 1-4); higher = more stable; sorted into four equal gates, so the index is relative within each strain
Conditions: doa10∆
Procedure, shortened: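 Yeast carrying a pooled library were grown to mid-log phase in leucine-free medium. Each library plasmid expresses Cherry and has a tiled 17-residue yeast protein peptide fused downstream of GFP. Cells were sorted into four equal gates by GFP/Cherry ratio, and plasmids from each gate were PCR-amplified, Illumina-sequenced and assigned to strains by barcode. Summing, across gates, the read frequency times the gate number gave each peptide's protein stability index.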
In the case of AVAHHTDCKFIRVSGAE [RPT6], the protein stability index is reported as 3.04 ± 0.13.
Work on AVAVVVDPIQSVKGKVV [RPN11] yielded a protein stability index of 2.22 ± 0.1.
AVKRGTCAVGVKGKNCV [PRE6] gave a protein stability index of 1.06 ± 0.11.
Sequence AVQNESVSSPIELNFDA [QCR2] has a protein stability index of 2.95 ± 0.059.
For AVTEREVLVTPGLEFLD [MCD1], the protein stability index was 2.85 ± 0.14.
Sequence AVYGPRSIRGSFTSQGT [MTR3] has a protein stability index of 3.16 ± 0.12.
Work on AYAQVEIQPRANIQLDF [FAS2] yielded a protein stability index of 3.17 ± 0.061.
For AYGVLDSNYKWDLSVED [PRE2], the protein stability index was 3 ± 0.073.
With AYHQKYVDEQSKNELKK [RPS16A] the protein stability index was 2.5 ± 0.093.
With CGGINDSIPYPQIVKLF [ECM29] the protein stability index was 1.56 ± 0.07.
For CGHRILLKARTKRLVQF [RPC10], the protein stability index was 1.43 ± 0.11.
CIQVNCLNCEKSKLFEW [SNM1] gave a protein stability index of 3.11 ± 0.065.
With CLEACSFILSSLEDPQV [YDL116W/NUP84] the protein stability index was 2.68 ± 0.048.
CLMRSLHKLELKAKNQE [DSN1] gave a protein stability index of 1.21 ± 0.06.
Work on CLQDALDAIDDFIQLKQ [SSN2] yielded a protein stability index of 2.73 ± 0.081.
Sequence CLTMFEDRNESVNIAFA [ECM29] has a protein stability index of 2.42 ± 0.13.
CNEEQTLEAKIGGLLSK [RPO31] gave a protein stability index of 3.16 ± 0.059.
For CNSIINKLGALKTNFET [RPB11], the protein stability index was 2.57 ± 0.089.
With CSGSGMGGVSALRGMFK [FAS2] the protein stability index was 3.64 ± 0.097.
For CSKAMGDLASLVLLNGR [RPP1], the protein stability index was 2.84 ± 0.061.
In the case of CSNESFASIPVSNSISR [SNU114], the protein stability index is reported as 2.55 ± 0.069.
Work on CSNPTCGAGVFLANHKD [RPS31] yielded a protein stability index of 3.06 ± 0.12.
With CSPKLPVEKVQRIAKND [DLS1] the protein stability index was 2.86 ± 0.29.
CSPWSLQISDIPAAGNN [SRB5] showed a protein stability index of 2.07 ± 0.04.
CTSLMDIIVAIKIFELK [IRR1] gave a protein stability index of 2.1 ± 0.2.
Work on CVEISHISKIIGLDTQQ [RPN6] yielded a protein stability index of 2.38 ± 0.17.
With CWPKDSRMRLIRQDVNL [PRP8] the protein stability index was 2.52 ± 0.081.
Sequence DADTEDPHSASLINSHL [RPC82] has a protein stability index of 2.9 ± 0.084.
Work on DAELMADEEEEIVDTYQ [ISW2] yielded a protein stability index of 1.32 ± 0.15.
Sequence DALKVVLRTALVHDGLA [RPS12] has a protein stability index of 2.5 ± 0.17.
For DALVKRFKNSVKWYHFD [PRE7], the protein stability index was 3.19 ± 0.13.
DAVKDFKLGKFNYVAVG [QCR2] gave a protein stability index of 3.2 ± 0.24.
DCLDKLLNDECTESTRE [SNF2] gave a protein stability index of 3.5 ± 0.14.
For DCQFWETWLGSQCRLHE [PRE2], the protein stability index was 2.22 ± 0.096.
DDDDSRKSAPVDSWDRE [SKP1] gave a protein stability index of 3.15 ± 0.047.
Work on DDDILIIRPILGKVRFA [SRB4] yielded a protein stability index of 1.51 ± 0.056.
DDELMNWRRLSGRNIHL [SSN2] gave a protein stability index of 3 ± 0.088.
In the case of DDIVSHQGTPLGSHSSS [REC8], the protein stability index is reported as 3.2 ± 0.15.
In the case of DDPLENMFGDYSNEPFN [SNF6], the protein stability index is reported as 2.98 ± 0.087.
Sequence DDPTQLVSRGGCGNTQP [RPO21] has a protein stability index of 3.18 ± 0.12.
Work on DDRGPVLESIVARTFWA [BRR2] yielded a protein stability index of 2.67 ± 0.09.
Sequence DDSFFNETNDKKRNPSK [PRP28] has a protein stability index of 3.16 ± 0.098.
DDSRNPDCKIKIAHGTT [PRE2] gave a protein stability index of 2.63 ± 0.086.
DDTKETVYISSIALLKM [RPN11] gave a protein stability index of 3.09 ± 0.087.
For DDVTCDKLSVSEISDGK [SIN4], the protein stability index was 2.97 ± 0.073.
In the case of DEDKFKKLKPIVAKYDP [PRP28], the protein stability index is reported as 2.78 ± 0.077.
With DEESLVKYMPEQKITEI [RPO21] the protein stability index was 3.23 ± 0.12.
DEHNELMRQALAIKDSK [RPO21] showed a protein stability index of 2.61 ± 0.05.
DEINTAQDKWHLLPAFL [RET1] showed a protein stability index of 3.51 ± 0.16.
Work on DEKVTILVDSLTGNQLP [SWI1] yielded a protein stability index of 2.76 ± 0.057.
For DELELEDAIHIALLTLK [PRE8], the protein stability index was 3.04 ± 0.076.
DELETKAEKKVELHGKR [PRP8] gave a protein stability index of 2.84 ± 0.19.
DELITEGNEKLAAVPAA [RPP2A] showed a protein stability index of 2.71 ± 0.09.
With DESDSENDIEIKGPEFK [YLR335W/NUP2] the protein stability index was 2.88 ± 0.11.
With DETTVPSYYYYVDPETT [ROX3] the protein stability index was 2.99 ± 0.08.
With DEVITEGQADIDMESDV [POP7] the protein stability index was 3.18 ± 0.068.
Sequence DFILSLLHHVSELDSND [YJL039C/NUP192] has a protein stability index of 1.93 ± 0.071.
Sequence DFKNEESLSEEHASLLV [MED8] has a protein stability index of 3.35 ± 0.11.
For DFLLSDWNKRFSHLAGG [BRR2], the protein stability index was 2.71 ± 0.053.
In the case of DFPELKPYKQVKQIAPA [FAS2], the protein stability index is reported as 2.29 ± 0.066.
Work on DFSLRYISNLLYGVTIC [REC8] yielded a protein stability index of 2.13 ± 0.039.
Work on DGAGGDNEVQRTMLELI [RPT1] yielded a protein stability index of 3.6 ± 0.16.
Sequence DGIFSSKTDNIEDPNLS [YMR153W/NUP53] has a protein stability index of 2.59 ± 0.086.
DGIHYILNHIGQLTGIY [PRP8] gave a protein stability index of 1.67 ± 0.065.
Sequence DGKLEPSTRSNFILEVF [YJL039C/NUP192] has a protein stability index of 1.63 ± 0.081.
With DGKLIDISGTMSGGGNH [SMC4] the protein stability index was 3.42 ± 0.11.
Sequence DGTAQLSNNKTDEEEQL [YJR042W/NUP85] has a protein stability index of 2.77 ± 0.25.
DGTGVRVIVAGTLDINP [FAS1] gave a protein stability index of 2.36 ± 0.068.
Work on DGVTHALYPQEARLRNL [RPB2] yielded a protein stability index of 3.22 ± 0.27.
DHASIRRGYQVYREVCA [CYT1] gave a protein stability index of 1.87 ± 0.06.
DHFIHLRNLHMKRMVAQ [SNF12] gave a protein stability index of 2.78 ± 0.063.
In the case of DHLKLVSLFSNLRHERN [YIL149C/MLP2], the protein stability index is reported as 2.41 ± 0.092.
For DHSWFLLIGCKLDQDDE [CSI1], the protein stability index was 1.54 ± 0.11.
DIDDELNELETLIKKKQ [SMC2] showed a protein stability index of 3.31 ± 0.16.
Work on DIDDILKKGEQKTQELN [ISW2] yielded a protein stability index of 3.31 ± 0.22.
In the case of DIEQLEYSRDCFCEDHC [RPB3], the protein stability index is reported as 3.1 ± 0.064.
Sequence DINVELFPVAAQDSLTV [RPB8] has a protein stability index of 1.33 ± 0.24.
DISAAIVHSSDGHLQFL [DLS1] showed a protein stability index of 2.92 ± 0.056.
For DISAMQPVNPKPFLKGL [SMX3], the protein stability index was 3.12 ± 0.067.
With DITDGKDYHTLANNVES [RPS18A] the protein stability index was 3.21 ± 0.052.
Work on DITSDQLLQRLNDMNTE [SMC3] yielded a protein stability index of 3.46 ± 0.16.
With DIVPYFLKHNGEEDAVD [RPN1] the protein stability index was 3.26 ± 0.12.
Sequence DIYFKLKKLEKEYELLT [RPT3] has a protein stability index of 2.74 ± 0.074.
With DKDAFIPKLKPAPINSL [SNU114] the protein stability index was 2.81 ± 0.069.
DKDVKAKYETSILEHSG [FAS2] gave a protein stability index of 3.36 ± 0.058.
DKGAVGPNNFIWPAEDA [MED4] gave a protein stability index of 3.51 ± 0.25.
DKINKYSLIRETNGYDP [SNF5] gave a protein stability index of 1.51 ± 0.086.
With DKLKDIVGQTSRTVTPA [ITC1] the protein stability index was 3.22 ± 0.059.
DKLLKRLKEKGSRVLIF [ISW2] gave a protein stability index of 1.35 ± 0.042.
For DKNSGVKSEVDVQVDAE [ITC1], the protein stability index was 2.1 ± 0.064.
For DKPLLKAGRAFHKYRLK [RPL2A], the protein stability index was 2.96 ± 0.085.
With DKQARKQRTKKEDKSEA [SNF2] the protein stability index was 3.64 ± 0.14.
With DLCSSVLSQFERSYPSE [ROX3] the protein stability index was 2.58 ± 0.094.
For DLEEAYATQVKTDNTVD [RPT3], the protein stability index was 2.19 ± 0.18.
DLFTHLWNQWLKLNTSL [SRP68] gave a protein stability index of 1.76 ± 0.048.
DLIRSESMLHLSIWIKN [IRR1] gave a protein stability index of 1.62 ± 0.057.
Work on DLISKKTKTSLLPTIKR [RPR2] yielded a protein stability index of 3.09 ± 0.079.
For DLKRFVDESLLSTLPAG [QCR2], the protein stability index was 3.02 ± 0.067.
In the case of DLLHPTAASEARKHKLK [RPS27A], the protein stability index is reported as 2.29 ± 0.1.

Same assay, conditions: pdr5∆
With AVAHHTDCKFIRVSGAE [RPT6] the protein stability index was 3.21 ± 0.16.
